Measurements reported in the supplement of paper PMC7877785.
± gives the uncertainty stated by the source.

Experiment: self-splicing fitness, log relative to wild type (ln ratio); higher = more splicing; Tetrahymena group I intron in knt gene, E. coli kanamycin selection, DiMSum; sequences stand for … in CUCUCU…GGAGGGAAAAGUUAUCAGGCAUGCACCUGGUAGCUAGUCUUUAAACCAAUAGAUUGCAUCGGUUUAAAAGGCAAGACCGUCAAAUUGCGGGAAAGGGGUCAACAGCCGUUCAGUACCAAGUCUCAGGGGAAACUUUGAGAUGGCCUUGCAAAGGGUAUGGUAAUAAGCUGACGGACAUGGUCCUAACCACGCAGCCAAGUCCUAAGUCAACAGAUCUUCUGUUGAUAUGGAUGCAGUUCACAGACUAAAUGUCGGUCGGGGAAGAUGUAUUCUUCUCAUAAGAUAUAGUCGGACCUCUCCUUAAUGGGAGCUAGCGGAUGAAGUGAUGCAACACUGGAGCCGCUGGGAACUAAUUUGUAUGCGAAAGUAUAUUGAUUAGUUUUGGAGUACUCGUGGUCG
Outline: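 Library with all eight P1ex-region intron nucleotides randomised, intron inside the knt kanamycin-resistance gene on pET-22b(+), in E. coli BL21(DE3). Cells grew overnight at 37°C or 30°C on LB agar with or without 25 μg/mL kanamycin (plus 100 μg/mL carbenicillin, 50 μM IPTG, 0.2% rhamnose), in six replicate transformations. Pooled colonies were amplicon-sequenced on Illumina HiSeq 2500. DiMSum fitness is the error-weighted combination of wild-type-normalised replicate fold changes, kanamycin versus none.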

Sequence	self-splicing fitness (ln) (30 °C)	self-splicing fitness (ln) (37 °C)
CUGUAGCAAUAUUACGCCCA	-1.79 ± 0.28	-2.56 ± 0.27
AUCGAGCAAUAUUACGCUUA	-2.01 ± 0.18	-0.429 ± 0.13
GAACAGCAAUAUUACGUUAU	-2.01 ± 0.066	-1.13 ± 0.077
GAAAAGCAAUAUUACGUCAG	-3.91 ± 0.33	-1.39 ± 0.19
CAUAAGCAAUAUUACGCCGU	-3.29 ± 0.36	-1.15 ± 0.19
UAAGAGCAAUAUUACGUAAA	-3.2 ± 0.37	-1.89 ± 0.33
GGAAAGCAAUAUUACGUCGA	-1.84 ± 0.092	-0.528 ± 0.12
AGCAAGCAAUAUUACGACAU	-0.211 ± 0.011	0.0321 ± 0.032
AAUGAGCAAUAUUACGAUCG	-3.6 ± 0.32	-2.59 ± 0.24
CUGCAGCAAUAUUACGUAUC	-4.37 ± 0.19	-2.73 ± 0.18
AACCAGCAAUAUUACGCUGG	-2.8 ± 0.14	-2.25 ± 0.19
CACAAGCAAUAUUACGAUUA	-2.43 ± 0.13	-0.984 ± 0.12
UGUAAGCAAUAUUACGUAUC	-3.17 ± 0.23	-2.13 ± 0.24
UAGAAGCAAUAUUACGGACG	-0.286 ± 0.13	0.291 ± 0.16
AACUAGCAAUAUUACGAGGA	-1.71 ± 0.1	-1.89 ± 0.11
UACUAGCAAUAUUACGUAUA	-2.31 ± 0.29	-1.19 ± 0.21
CCAAAGCAAUAUUACGCAAC	-1.96 ± 0.1	-2.53 ± 0.23
UAUUAGCAAUAUUACGCGAU	–	-2.15 ± 0.38
CUGCAGCAAUAUUACGGAGG	-2.5 ± 0.13	-2.03 ± 0.21
UGAAAGCAAUAUUACGACCG	-0.0402 ± 0.16	0.0392 ± 0.2
UUAAAGCAAUAUUACGGGUU	-3.04 ± 0.15	-1.46 ± 0.13
AACAAGCAAUAUUACGUUCG	-2.86 ± 0.1	-1.76 ± 0.13
GCGGAGCAAUAUUACGCACU	-2.62 ± 0.14	-2.79 ± 0.18
ACGUAGCAAUAUUACGACCG	-0.218 ± 0.1	0.0549 ± 0.12
UGAGAGCAAUAUUACGGUCG	-1.56 ± 0.083	-0.464 ± 0.11

Sequence	self-splicing fitness (ln) (30 °C)	self-splicing fitness (ln) (37 °C)
GGUGAGCAAUAUUACGCAGC	–	-1.93 ± 0.34
GAGAAGCAAUAUUACGUCGG	-3.32 ± 0.19	-2.35 ± 0.24
ACAGAGCAAUAUUACGUAGC	-3.27 ± 0.33	-2.56 ± 0.41
CGGCAGCAAUAUUACGUAGU	-3.77 ± 0.21	-0.852 ± 0.12
ACAGAGCAAUAUUACGUGAG	-2.08 ± 0.11	-1.55 ± 0.1
AAGUAGCAAUAUUACGAACC	-1.4 ± 0.36	-1.57 ± 0.25
GAUCAGCAAUAUUACGGACC	-0.933 ± 0.32	-1.08 ± 0.36
GAAUAGCAAUAUUACGCCCA	-0.91 ± 0.17	-0.732 ± 0.24
CGCCAGCAAUAUUACGUGUA	-3.04 ± 0.097	-1.04 ± 0.072
AUAGAGCAAUAUUACGUCGU	-0.0699 ± 0.096	-0.158 ± 0.1
AAUAAGCAAUAUUACGGUUA	-0.197 ± 0.08	-0.369 ± 0.077
GCAGAGCAAUAUUACGGUCA	-0.893 ± 0.21	-0.283 ± 0.14
CUAGAGCAAUAUUACGAACG	0.208 ± 0.12	0.617 ± 0.14
CUCUAGCAAUAUUACGUGUU	-3.44 ± 0.15	-2.39 ± 0.12
CACGAGCAAUAUUACGUUCG	-4.18 ± 0.29	-2.75 ± 0.21
CGUGAGCAAUAUUACGAAGA	-1.53 ± 0.37	–
UCCCAGCAAUAUUACGAGCA	-0.711 ± 0.1	0.0665 ± 0.13
CUGAAGCAAUAUUACGAAUG	-0.544 ± 0.083	0.252 ± 0.12
UUGAAGCAAUAUUACGUUCA	0.472 ± 0.094	0.134 ± 0.11
CUCUAGCAAUAUUACGGACU	–	-4.16 ± 0.39
CUCCAGCAAUAUUACGGGGC	-4.13 ± 0.23	-2.56 ± 0.17
AGUCAGCAAUAUUACGUGUG	-2.26 ± 0.099	-1.57 ± 0.11
GACCAGCAAUAUUACGCGAA	-0.483 ± 0.059	-0.138 ± 0.083
GCUGAGCAAUAUUACGUUAU	-2.96 ± 0.25	-2.33 ± 0.28
UACGAGCAAUAUUACGUUAG	-3.03 ± 0.17	-2.32 ± 0.19

Sequence	self-splicing fitness (ln) (30 °C)	self-splicing fitness (ln) (37 °C)
CCAUAGCAAUAUUACGGGCU	-3.65 ± 0.27	-2.19 ± 0.19
CACCAGCAAUAUUACGGACG	-0.37 ± 0.058	0.374 ± 0.08
UUGGAGCAAUAUUACGUUUU	-1.64 ± 0.19	-2.55 ± 0.18
CUCAAGCAAUAUUACGCUCU	-4.12 ± 0.25	-2.39 ± 0.21
CUUGAGCAAUAUUACGUCGA	-1.25 ± 0.24	–
UUAAAGCAAUAUUACGUAAG	-0.67 ± 0.082	-0.258 ± 0.11
CUUGAGCAAUAUUACGACAA	–	-2.84 ± 0.49
GACCAGCAAUAUUACGAACC	-0.191 ± 0.09	0.0652 ± 0.092
UUUGAGCAAUAUUACGAUGC	–	-1.81 ± 0.4
AUGGAGCAAUAUUACGCGAC	-1.94 ± 0.28	-2.79 ± 0.43
GGAUAGCAAUAUUACGAUUA	-0.674 ± 0.17	0.409 ± 0.15
AGAUAGCAAUAUUACGAGCC	-0.476 ± 0.18	-1.76 ± 0.28
UCCUAGCAAUAUUACGAAAA	-2.7 ± 0.43	–
AUACAGCAAUAUUACGGGGU	-3.29 ± 0.13	-1.69 ± 0.093
GAGCAGCAAUAUUACGCUGC	-3.72 ± 0.18	-3.06 ± 0.27
ACCCAGCAAUAUUACGGCGU	-2.08 ± 0.081	-0.746 ± 0.084
AUAUAGCAAUAUUACGUACU	-0.531 ± 0.16	-0.188 ± 0.19
UGGGAGCAAUAUUACGGGGC	-2.62 ± 0.48	-2.07 ± 0.34
AGUUAGCAAUAUUACGUGAU	-3.08 ± 0.21	-1.19 ± 0.18
CGAAAGCAAUAUUACGAUGC	-2.67 ± 0.39	-1.35 ± 0.27
AGUAAGCAAUAUUACGCAAG	-2.99 ± 0.16	-1.88 ± 0.19
CCACAGCAAUAUUACGGCCG	-0.955 ± 0.073	0.0456 ± 0.1
GAAUAGCAAUAUUACGAGUA	-2.44 ± 0.17	-1.98 ± 0.17
GCUGAGCAAUAUUACGGUGA	-1.35 ± 0.17	-0.217 ± 0.17
CUAUAGCAAUAUUACGUCGC	-3.75 ± 0.24	–

Sequence	self-splicing fitness (ln) (30 °C)	self-splicing fitness (ln) (37 °C)
GUAGAGCAAUAUUACGGAGA	-2.58 ± 0.3	–
CUUCAGCAAUAUUACGCCCG	-0.156 ± 0.12	-0.17 ± 0.15
GGCGAGCAAUAUUACGUCGU	-3.86 ± 0.22	-2.3 ± 0.32
AUGGAGCAAUAUUACGAGAG	–	-2.04 ± 0.23
ACAAAGCAAUAUUACGAGUC	-4.66 ± 0.25	-2.95 ± 0.23
UGGAAGCAAUAUUACGUUGC	-4.13 ± 0.47	-3.11 ± 0.4
CCGGAGCAAUAUUACGGGAG	-3.98 ± 0.27	-2.13 ± 0.26
UGGCAGCAAUAUUACGGAAG	-1.78 ± 0.13	-0.447 ± 0.12
CUUAAGCAAUAUUACGUAUU	-4.4 ± 0.31	-2.25 ± 0.23
UGUUAGCAAUAUUACGGGCU	-1.9 ± 0.13	-1.5 ± 0.17
CUGUAGCAAUAUUACGUCUC	-4.07 ± 0.39	–
GACAAGCAAUAUUACGAAGA	-2.94 ± 0.17	-1.19 ± 0.13
CGUGAGCAAUAUUACGGUCC	-3.39 ± 0.24	-1.69 ± 0.24
GGUUAGCAAUAUUACGAUCA	-0.0432 ± 0.15	-0.342 ± 0.13
UUCAAGCAAUAUUACGGUAA	-0.679 ± 0.097	0.0151 ± 0.1
GGUGAGCAAUAUUACGUACU	-1.89 ± 0.14	-1.75 ± 0.17
UGUCAGCAAUAUUACGAUGG	-0.3 ± 0.073	0.195 ± 0.098
UGUUAGCAAUAUUACGACUG	0.492 ± 0.095	0.167 ± 0.12
AGGAAGCAAUAUUACGUUGG	-3.22 ± 0.3	-2.33 ± 0.17
GUAAAGCAAUAUUACGCCUC	-0.782 ± 0.12	0.463 ± 0.16
CACAAGCAAUAUUACGGUGA	-3.09 ± 0.12	-0.931 ± 0.085
UAAGAGCAAUAUUACGCUGC	–	-1.15 ± 0.37
CGAUAGCAAUAUUACGCUCU	-0.961 ± 0.12	0.447 ± 0.12
UUUAAGCAAUAUUACGACUU	-2.03 ± 0.12	-0.889 ± 0.12
